According to publication PMC4211667, “Cell Fate Regulation Governed by a Repurposed Bacterial Histidine Kinase” (PLoS Biology, 2014):
Values belong to the molecule of their own block, whether it stands above or below them.

Columns and labels:
DivL(523–769) = biological target: T1, DivL(523–769) (Caulobacter vibrioides, UniProt Q9RQQ9); assay: fluorescence titration of TNP-ATP with DivL; conditions: read-out: apparent binding constant
T1 construct: DHp-CA domains only (no PAS domains), residues 523-769, N-terminal His6, E. coli Rosetta (DE3) pLysS, homodimer in solution
T1 sequence (Q9RQQ9 523-769): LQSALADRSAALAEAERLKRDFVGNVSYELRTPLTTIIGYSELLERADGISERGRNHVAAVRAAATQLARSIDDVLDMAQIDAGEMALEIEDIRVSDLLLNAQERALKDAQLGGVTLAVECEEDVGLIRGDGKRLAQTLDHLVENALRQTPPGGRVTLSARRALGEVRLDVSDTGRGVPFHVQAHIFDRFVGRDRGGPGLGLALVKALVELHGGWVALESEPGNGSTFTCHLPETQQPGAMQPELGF

DivJ = biological target: T2, DivJ (Caulobacter vibrioides, UniProt Q03228); assay: coupled-enzyme (PK/LDH, NADH) ATPase assay; format: biochemical; conditions: 1 mM ATP, 10 mM MgCl2, kinase buffer pH 8.0; with and without DivK activator
T2 construct: His-tagged, recombinant from E. coli

[1] = biological target: BODIPY-DivK∼P (phosphorylated DivK response regulator) (Caulobacter crescentus); assay: fluorescence polarisation; 250 nM BODIPY-DivK or BODIPY-DivK∼P with varying kinase concentrations (DivL 0–120 µM), 45 min to equilibrium; DivK∼P made with 250 nM DivJ, 1 mM ATP, 5 mM MgCl2; unphosphorylated DivK with 1 mM AMP-PNP, 5 mM MgCl2; apparent Kd
[2] = biological target: BODIPY-DivK (unphosphorylated DivK response regulator) (Caulobacter crescentus); assay: as above
[3] = biological target: the molecule itself; assay: SEC; 2 mg/ml His6-DivL(523–769) on Superdex 200 10/300 GL against Bio-rad standards

Sequence of BODIPY-DivK∼P (phosphorylated DivK response regulator) (Caulobacter crescentus) (Q45976 entry or part of it): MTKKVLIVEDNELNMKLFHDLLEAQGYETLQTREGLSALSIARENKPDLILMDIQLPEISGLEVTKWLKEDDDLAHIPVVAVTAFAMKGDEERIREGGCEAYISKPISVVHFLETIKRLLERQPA
Sequence of BODIPY-DivK (unphosphorylated DivK response regulator) (Caulobacter crescentus) (Q45976 entry or part of it): as above
T2 sequence (Q03228 189-597): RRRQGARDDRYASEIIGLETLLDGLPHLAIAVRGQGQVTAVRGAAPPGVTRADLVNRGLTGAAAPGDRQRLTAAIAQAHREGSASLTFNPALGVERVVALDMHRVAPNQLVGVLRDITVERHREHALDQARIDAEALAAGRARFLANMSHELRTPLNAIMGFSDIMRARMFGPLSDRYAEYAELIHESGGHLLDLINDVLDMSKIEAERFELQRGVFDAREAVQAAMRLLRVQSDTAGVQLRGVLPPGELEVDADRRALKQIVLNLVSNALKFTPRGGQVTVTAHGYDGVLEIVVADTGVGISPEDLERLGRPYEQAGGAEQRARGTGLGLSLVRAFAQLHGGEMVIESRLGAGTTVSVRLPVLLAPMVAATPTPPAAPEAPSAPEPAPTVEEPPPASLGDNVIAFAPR

Kd (DivL(523–769)): 57 ± 8 µM
Molecule: Nc1ncnc2c1ncn2[C@@H]1O[C@H](COP(=O)(O)OP(=O)(O)OP(=O)(O)O)[C@H]2OC3(O[C@H]21)C([N+](=O)[O-])=CC(=[N+]([O-])O)C=C3[N+](=O)[O-] (some centres unmarked) [TNP-ATP]

Molecule: Nc1ncnc2c1ncn2[C@@H]1O[C@H](COP(=O)(O)OP(=O)(O)OP(=O)(O)O)[C@@H](O)[C@H]1O [ATP]
ATP consumption rate (DivJ): we observed stimulation of DivJ autokinase activity in the presence of DivK

Kd [1]: 7 µM
Kd [2]: 15 µM
B1: His6-DivL(523–769) (domain or fragment, Caulobacter crescentus, UniProt Q9RQQ9 523-769, looked up)
chain: T1 sequence (Q9RQQ9 523-769)
notes: DivL pseudo-histidine kinase, Caulobacter crescentus, residues 523-769 (DHp and CA domains with part of the N-terminal input helix); also called DivL DHp-CA construct; crystallization construct; source: E. coli Rosetta (DE3) pLysS (plasmid pWSC8), purified (Ni-NTA, gel filtration); not shown: His6, N-terminal, kept
stoichiometry N [3]: 2
